Test results as given in PMC5316841.

Molecular target: Fbxw7 (UniProt Q969H0)
Assay: anti-FLAG co-IP, HSF1 immunoblot
Conditions: reference: wild type HSF1; sites S303

HSF1 (from UniProt Q00613) HSF1 S303A
binding against the reference: weaker
